Measured values taken from the supplement of paper PMC12764529.
± gives the half width of the 95% confidence interval.

How the values were obtained:
[1] = folding stability dG unfold from chymotrypsin proteolysis; higher = more stable
How it was run: (§1)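 Bayesian fitting of sequencing counts gave K50 for each design. Unfolding free energy followed by setting this against a sequence-predicted unfolded-state K50 and a shared folded-state K50, either per protease or with trypsin and chymotrypsin combined. The designs, under 80 residues and lacking cysteine, were digested in a PA-tagged cDNA display format at 11 threefold-diluted protease concentrations and without protease, and only those with AlphaFold2 dimer inter-PAE above 15 were kept.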

[2] = folding stability dG unfold from trypsin proteolysis; higher = more stable
How it was run: as §1

[3] = folding stability dG unfold (combined trypsin and chymotrypsin); higher = more stable
How it was run: as §1

Row | Sequence | folding stability dG unfold [1] [kcal/mol] | folding stability dG unfold [2] [kcal/mol] | folding stability dG unfold [3] [kcal/mol]
1 | SAGGSAGGSIEIPGGYTIPSSLSEEEAKEAAKKLFLEKNPELGVKEVEVKVETKNGKKTITVVKSAGGSAGG [r6_558_JUSTAS] | 0.857 ± 0.14 | 0.641 ± 0.074 | 0.714 ± 0.28
2 | SAGGDPETPTTITAPVDPATGTTTWVVNDGSSTSTIPSSLSLEELKKLGLTKAEPLPDGTLRFTILASAGGS [r8_382_JUSTAS] | 0.494 ± 0.081 | 0.289 ± 0.022 | 0.495 ± 0.053
3 | SAGGSAGGSAGGSMTLKVTLTPPSGEVVEFEITEEELDKLKEELPEDWSISTEPIPELESAGGSAGGSAGGS [r4_63_JUSTAS] | 2.132 ± 0.016 | 2.43 ± 0.07 | 2.29 ± 0.051
4 | SAGGSAGGSAGGELKLLRIEVTGRAPYPTELLKTVEIVLPNEDVTEEQIRELLKELGIELSAGGSAGGSAGG [r7_903_TrMRF] | -0.505 ± 0.26 | 0.226 ± 0.046 | 0.0188 ± 0.19
5 | SEPPPKIKIKEVEYNPDDGYLTIPVTHPNGPKMRVKFRPPDGKTQEIPPNSPTITIPLPPNMRLTEIEVDSA [r9_113_TrROS] | 2.79 ± 0.29 | 3.51 ± 0.31 | 3.22 ± 0.33
6 | SIKELAKELPGFQVSVEPDDPGQVKITIMVPDDPQQQKRFQNKIIELANDIQGEHGMPVTIEIQPVPPGDSA [r9_1099_TrROS] | 0.0536 ± 0.096 | -0.238 ± 0.056 | -0.00283 ± 0.081
7 | SAGGSAGGSSPITIPIPLSELSEETLKKIAEENPEGETPIKIIKPDGTPVTIVVKPGGEIIGASAGGSAGGS [r12_1054_JUSTAS] | 1.09 ± 0.068 | 0.728 ± 0.046 | 1.01 ± 0.075
8 | SAGGSAGGSAGIGSKKPVIKKNIEIEPEIKVEGGKGGSKVKIEYKAKIEIKVYIISKNNPSAGGSAGGSAGG [r17_186_TrMRF] | 2.15 ± 0.13 | 1.28 ± 0.22 | 1.98 ± 0.4
9 | SAGGSAGGSAPPYKYVQIELWIPGPIEEIADELQDNFGIRSIDVKRDPENGWVRADIYFQFPSAGGSAGGSA [r18_275_TrROS] | 2.444 ± 0.024 | 2.07 ± 0.046 | 2.26 ± 0.14
10 | SMTTTTLPDGTTVTTLSDGTVKTVTHYPDSVVTETSPITYKLPDGREFTTKEEAEAYEKETGIPVSPALASA [r9_660_JUSTAS] | 0.255 ± 0.23 | 0.62 ± 0.036 | 0.4 ± 0.16
11 | SAGGSAGGSAGGEIKVEVVPVDGKLRVKVTLEDGEKIEIEVPENTTLDELKKLAEELAKKSAGGSAGGSAGG [r7_265_TrROS_Hall] | 2.12 ± 0.077 | 1.55 ± 0.083 | 1.94 ± 0.11
12 | SAGDSIEIMVMVKTPEEAKKLADEIAQILPGNGLNIEITIMPMEELMKMFMEMTKPDPDGEYRRVRMFSAGG [r19_187_TrROS] | 1.37 ± 0.13 | 1.07 ± 0.053 | 1.3 ± 0.14
13 | SAGGSAGGSAGGMRLVRITTEDGRTITAPVGETITITRPDGSKVKITRVEVFELPPEDLSAGGSAGGSAGGS [r10_20_TrROS_Hall] | 1.51 ± 0.025 | 0.744 ± 0.021 | 1.23 ± 0.041
14 | SAGGSSKLTFKDPNSDGTYSVTYDPSTGKANVTTSNGSSATISFEGDTITLLESSSVPPSPSNPTTSSAGGS [r16_687_JUSTAS] | 0.252 ± 0.093 | 0.123 ± 0.047 | 0.243 ± 0.09
15 | SAGAMVTHTITVKIDPSELDKLEEILEKIKNSGPVKAIEPVSFEPGTGVYTVKVTADPATIKLVEEALKSAG [r5_193_JUSTAS] | 4.14 ± 0.062 | 4.51 ± 0.28 | 4.24 ± 0.069
16 | SAPSPKTPETLVFLSEEESEVVEERLSPSGKPFLVKRKRRFLRYRYVDEDGNVTSVGEREEPVEEELVLSAG [r14_934_JUSTAS] | 0.231 ± 0.13 | 0.985 ± 0.094 | 0.672 ± 0.087
17 | SAGGSAGGSAGTVEEIAKYFAGEFPNYKVNIDVEWEGGKITSVDIEWEVVPPPPPESPGKSAGGSAGGSAGG [r11_197_TrROS] | 0.309 ± 0.18 | 1.16 ± 0.12 | 0.834 ± 0.22
18 | SAGGPVETPGPHPLRPVPVVEPKKVVVTYPDLSPEEAAALAAELEAQGATTSFDPATGTLTVTLTGLSAGGS [r16_765_JUSTAS] | 3 ± 0.038 | 1.12 ± 0.043 | 2.58 ± 0.072
19 | SAGGSAGGSDKYVVVIRVVNKETKKVTTLVFEGLKTPEELKAAVEALLPPGVVKVEIRVVKLPSAGGSAGGS [r20_29_TrROS_Hall] | 3.28 ± 0.12 | 2.89 ± 0.18 | 3.18 ± 0.15
20 | SKVKVEVVEVKYNKETKKFTVKLKVYNEDGELIEEIELEFPESEEEVLKKAEELAKELAEKYGLKIEIKPSA [r9_31_TrROS_Hall] | 3.89 ± 0.085 | 2.41 ± 0.12 | 3.56 ± 0.12
21 | SAGGSAGGSAGGKKTITVTVKINGKTYRVEIKYDEKTKKVTIKIEVNGKKYEFEFELKDSAGGSAGGSAGGS [r10_438_TrROS_Hall] | 4.42 ± 0.25 | 4.73 ± 0.96 | 4.54 ± 0.36
